Data on two substances can be found in patent US20240261333A1, “NOVEL TARGETS FOR ENHANCING ANTI-TUMOR IMMUNITY” (THE BROAD INSTITUTE, INC., priority 2021, published 2024).

For assay [1], the target named is CAT (human) (UniProt P04040). Briefly: co-IP, anti-FLAG, lysate of cells with N-FLAG B3GNT2; mass spectrometry.
In assay [2] the target is SAMM50 (human) (UniProt Q9Y512). The assay is described as above.
Assay [3] deals with RPL18 (human) (UniProt Q07020). The assay is described as above.
In assay [4] the target is RPL13 (human) (UniProt P26373). Described as above.
Assay [5] has as its target T1, MOV10 (human) (UniProt Q9HCE1).
T1 sequence (looked up): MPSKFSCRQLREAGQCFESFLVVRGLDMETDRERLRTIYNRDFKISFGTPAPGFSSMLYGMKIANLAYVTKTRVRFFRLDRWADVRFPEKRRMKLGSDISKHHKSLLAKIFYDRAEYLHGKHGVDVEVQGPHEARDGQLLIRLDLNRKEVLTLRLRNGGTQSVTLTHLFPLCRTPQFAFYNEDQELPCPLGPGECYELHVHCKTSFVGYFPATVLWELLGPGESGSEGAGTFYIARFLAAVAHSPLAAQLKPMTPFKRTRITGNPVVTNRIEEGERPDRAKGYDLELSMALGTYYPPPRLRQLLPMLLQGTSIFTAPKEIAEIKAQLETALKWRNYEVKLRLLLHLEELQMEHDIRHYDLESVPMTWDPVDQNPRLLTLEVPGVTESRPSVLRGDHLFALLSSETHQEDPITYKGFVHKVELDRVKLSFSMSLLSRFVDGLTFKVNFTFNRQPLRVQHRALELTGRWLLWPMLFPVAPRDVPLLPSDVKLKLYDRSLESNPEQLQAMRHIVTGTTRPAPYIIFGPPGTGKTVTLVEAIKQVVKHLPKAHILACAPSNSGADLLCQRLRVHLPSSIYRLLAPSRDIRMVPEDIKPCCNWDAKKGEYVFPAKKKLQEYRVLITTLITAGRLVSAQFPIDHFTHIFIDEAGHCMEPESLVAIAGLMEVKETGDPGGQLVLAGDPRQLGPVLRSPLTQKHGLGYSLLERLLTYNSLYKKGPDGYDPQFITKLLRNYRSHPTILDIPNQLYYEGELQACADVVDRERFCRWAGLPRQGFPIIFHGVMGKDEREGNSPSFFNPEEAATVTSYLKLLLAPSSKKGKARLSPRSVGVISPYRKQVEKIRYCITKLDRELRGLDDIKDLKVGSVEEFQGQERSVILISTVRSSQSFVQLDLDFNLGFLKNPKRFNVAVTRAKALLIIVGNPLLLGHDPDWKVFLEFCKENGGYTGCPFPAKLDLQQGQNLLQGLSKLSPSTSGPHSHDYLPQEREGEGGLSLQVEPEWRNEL
The description is as above.

In assay [6] the target is HSPA8 (human) (UniProt P11142). The description is as above.
For assay [7], the target named is HUWE1 (human) (UniProt Q7Z6Z7). The description is as above.
The target of assay [8] is ACSL3 (human) (UniProt O95573). Put plainly: IgG control IP from lysate of N-FLAG B3GNT2 cells, mass spectrometry.
For assay [9], the target named is RPS6 (human) (UniProt P62753). The description is as above.
The target of assay [10] is KPNB1 (human) (UniProt Q14974). The assay is described as above.
In assay [11] the target is KTN1 (human) (UniProt Q86UP2). The description is as above.
Assay [12] has as its target EEF2 (human) (UniProt P13639). The description is as above.
Assay [13] concerns the target PSMB4 (human) (UniProt P28070). The assay is described as above.
The target in assay [14] is ELOC (human) (UniProt Q15369). The description is as above.
Assay [15] deals with IPO7 (human) (UniProt O95373). The assay is described as above.
In assay [16] the target is RPL15 (human) (UniProt P61313). The description is as above.
Assay [17] deals with H1FX (human) (UniProt Q92522). The assay is described as above.
Assay [18] deals with ABCD1 (human) (UniProt P33897). The assay is described as above.
Assay [19] has as its target PSMB6 (human) (UniProt P28072). The description is as above.
The target of assay [20] is AIFM1 (human) (UniProt O95831). Described as above.
Assay [21] concerns the target HSP90AB1 (human) (UniProt P08238). The assay is described as above.
Assay [22] deals with SLC25A22 (human) (UniProt Q9H936). The assay is described as above.
The target of assay [23] is FBXO6 (human) (UniProt Q9NRD1). The description is as above.
The target in assay [24] is ERP29 (human) (UniProt P30040). The assay is described as above.
Assay [25] concerns the target ATAD3A (human) (UniProt Q9NVI7). Described as above.
The target of assay [26] is STAU1 (human) (UniProt O95793). The description is as above.
Assay [27] has as its target TUBA1C (human) (UniProt Q9BQE3). Described as above.

Sequence of ACSL3 (human) (O95573 whole entry): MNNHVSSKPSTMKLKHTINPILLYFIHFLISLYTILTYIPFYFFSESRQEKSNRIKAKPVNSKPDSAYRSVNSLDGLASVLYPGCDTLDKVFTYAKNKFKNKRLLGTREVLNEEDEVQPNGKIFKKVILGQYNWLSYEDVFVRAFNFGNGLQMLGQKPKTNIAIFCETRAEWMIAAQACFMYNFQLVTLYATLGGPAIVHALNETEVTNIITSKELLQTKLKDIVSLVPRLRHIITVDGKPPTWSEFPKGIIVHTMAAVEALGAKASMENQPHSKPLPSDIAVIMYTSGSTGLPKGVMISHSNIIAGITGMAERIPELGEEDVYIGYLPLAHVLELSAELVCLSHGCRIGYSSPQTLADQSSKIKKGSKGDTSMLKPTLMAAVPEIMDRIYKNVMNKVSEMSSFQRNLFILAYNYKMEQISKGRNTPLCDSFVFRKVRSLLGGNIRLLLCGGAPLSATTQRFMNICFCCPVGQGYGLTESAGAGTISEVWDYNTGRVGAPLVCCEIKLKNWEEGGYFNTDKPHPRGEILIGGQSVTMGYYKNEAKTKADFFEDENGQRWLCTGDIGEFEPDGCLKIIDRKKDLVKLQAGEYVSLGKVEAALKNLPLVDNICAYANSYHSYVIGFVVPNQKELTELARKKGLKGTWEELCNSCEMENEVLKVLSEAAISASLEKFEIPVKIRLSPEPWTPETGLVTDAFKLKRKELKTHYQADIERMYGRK
Sequence of PSMB4 (human) (P28070 46-264 limits assumed): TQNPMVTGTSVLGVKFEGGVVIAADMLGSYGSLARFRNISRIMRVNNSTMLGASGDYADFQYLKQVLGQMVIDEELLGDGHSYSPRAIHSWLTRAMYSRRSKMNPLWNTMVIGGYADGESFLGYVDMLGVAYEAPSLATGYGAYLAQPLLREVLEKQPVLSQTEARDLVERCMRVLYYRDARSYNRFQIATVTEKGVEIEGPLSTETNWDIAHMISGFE
Sequence of HSPA8 (human) (P11142 2-646 limits assumed): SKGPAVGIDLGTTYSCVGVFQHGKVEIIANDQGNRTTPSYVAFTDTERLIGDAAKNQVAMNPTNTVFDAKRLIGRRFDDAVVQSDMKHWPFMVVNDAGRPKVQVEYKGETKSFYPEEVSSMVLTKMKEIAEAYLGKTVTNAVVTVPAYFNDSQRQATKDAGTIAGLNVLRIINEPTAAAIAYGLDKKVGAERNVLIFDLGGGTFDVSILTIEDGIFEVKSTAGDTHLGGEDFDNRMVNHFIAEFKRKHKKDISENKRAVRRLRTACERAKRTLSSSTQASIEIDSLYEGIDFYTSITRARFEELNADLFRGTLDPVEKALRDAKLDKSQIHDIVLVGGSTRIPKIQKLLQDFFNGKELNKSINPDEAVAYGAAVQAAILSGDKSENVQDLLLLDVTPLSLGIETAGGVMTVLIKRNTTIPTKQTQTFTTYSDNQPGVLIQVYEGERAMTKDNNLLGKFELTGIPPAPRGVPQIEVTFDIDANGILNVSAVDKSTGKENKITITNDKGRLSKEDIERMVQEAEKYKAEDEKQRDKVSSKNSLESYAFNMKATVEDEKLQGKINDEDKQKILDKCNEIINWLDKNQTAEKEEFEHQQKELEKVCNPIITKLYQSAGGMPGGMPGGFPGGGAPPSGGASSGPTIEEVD
Sequence of ATAD3A (human) (Q9NVI7 2-586 limits assumed): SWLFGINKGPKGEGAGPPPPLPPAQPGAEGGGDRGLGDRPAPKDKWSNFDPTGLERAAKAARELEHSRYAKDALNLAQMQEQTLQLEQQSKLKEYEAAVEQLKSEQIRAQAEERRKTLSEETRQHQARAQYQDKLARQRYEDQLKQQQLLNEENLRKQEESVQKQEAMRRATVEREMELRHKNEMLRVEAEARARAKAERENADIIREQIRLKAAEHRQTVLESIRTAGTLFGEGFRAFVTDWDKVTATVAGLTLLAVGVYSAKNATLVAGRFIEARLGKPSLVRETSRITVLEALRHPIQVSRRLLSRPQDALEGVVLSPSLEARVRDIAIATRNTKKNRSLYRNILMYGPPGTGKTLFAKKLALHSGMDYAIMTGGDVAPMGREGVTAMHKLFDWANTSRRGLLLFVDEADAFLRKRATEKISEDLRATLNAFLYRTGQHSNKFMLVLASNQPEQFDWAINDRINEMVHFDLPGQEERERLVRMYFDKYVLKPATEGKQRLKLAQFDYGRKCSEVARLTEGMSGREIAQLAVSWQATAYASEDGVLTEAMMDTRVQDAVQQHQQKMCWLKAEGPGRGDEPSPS
Sequence of STAU1 (human) (O95793 other isoform, or with tags, fused parts or gaps limits assumed): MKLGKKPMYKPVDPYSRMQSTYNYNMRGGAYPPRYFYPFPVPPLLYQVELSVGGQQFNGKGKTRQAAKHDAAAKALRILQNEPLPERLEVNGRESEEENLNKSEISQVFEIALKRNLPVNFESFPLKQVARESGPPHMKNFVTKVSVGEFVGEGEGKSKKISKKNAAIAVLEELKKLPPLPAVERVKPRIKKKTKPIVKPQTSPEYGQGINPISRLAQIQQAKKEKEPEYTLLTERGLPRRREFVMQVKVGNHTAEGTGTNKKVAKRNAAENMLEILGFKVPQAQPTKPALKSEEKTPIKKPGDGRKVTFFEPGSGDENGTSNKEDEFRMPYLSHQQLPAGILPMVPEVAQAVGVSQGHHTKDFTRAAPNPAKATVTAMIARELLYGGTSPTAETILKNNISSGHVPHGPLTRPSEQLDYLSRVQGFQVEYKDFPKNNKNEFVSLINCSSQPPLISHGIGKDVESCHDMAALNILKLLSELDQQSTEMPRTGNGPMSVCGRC
Sequence of IPO7 (human) (O95373 whole entry): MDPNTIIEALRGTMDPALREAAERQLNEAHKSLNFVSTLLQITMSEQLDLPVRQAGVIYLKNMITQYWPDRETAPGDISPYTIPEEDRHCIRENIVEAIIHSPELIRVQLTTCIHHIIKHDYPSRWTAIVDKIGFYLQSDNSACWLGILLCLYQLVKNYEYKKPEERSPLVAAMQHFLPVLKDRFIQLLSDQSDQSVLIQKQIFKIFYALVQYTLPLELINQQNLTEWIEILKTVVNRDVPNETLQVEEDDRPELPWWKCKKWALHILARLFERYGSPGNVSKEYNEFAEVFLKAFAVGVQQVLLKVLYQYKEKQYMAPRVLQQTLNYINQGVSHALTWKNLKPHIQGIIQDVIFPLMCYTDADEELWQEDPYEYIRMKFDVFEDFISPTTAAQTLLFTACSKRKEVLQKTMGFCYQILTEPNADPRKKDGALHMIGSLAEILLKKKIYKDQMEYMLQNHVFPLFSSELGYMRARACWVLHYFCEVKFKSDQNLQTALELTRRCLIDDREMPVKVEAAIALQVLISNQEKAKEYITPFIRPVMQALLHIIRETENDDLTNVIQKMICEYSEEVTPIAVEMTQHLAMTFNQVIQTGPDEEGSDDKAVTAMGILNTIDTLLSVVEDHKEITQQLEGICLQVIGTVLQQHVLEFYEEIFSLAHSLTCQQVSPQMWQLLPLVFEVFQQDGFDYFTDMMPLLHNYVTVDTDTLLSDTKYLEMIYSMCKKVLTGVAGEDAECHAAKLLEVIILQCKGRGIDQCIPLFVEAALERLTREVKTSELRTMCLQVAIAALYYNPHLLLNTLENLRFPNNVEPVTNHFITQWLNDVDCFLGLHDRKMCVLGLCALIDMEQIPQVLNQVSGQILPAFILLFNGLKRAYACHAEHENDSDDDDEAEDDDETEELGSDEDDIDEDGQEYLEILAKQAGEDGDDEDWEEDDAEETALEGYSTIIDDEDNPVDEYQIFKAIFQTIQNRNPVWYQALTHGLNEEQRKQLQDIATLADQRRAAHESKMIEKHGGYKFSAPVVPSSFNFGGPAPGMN
Sequence of SAMM50 (human) (Q9Y512 whole entry): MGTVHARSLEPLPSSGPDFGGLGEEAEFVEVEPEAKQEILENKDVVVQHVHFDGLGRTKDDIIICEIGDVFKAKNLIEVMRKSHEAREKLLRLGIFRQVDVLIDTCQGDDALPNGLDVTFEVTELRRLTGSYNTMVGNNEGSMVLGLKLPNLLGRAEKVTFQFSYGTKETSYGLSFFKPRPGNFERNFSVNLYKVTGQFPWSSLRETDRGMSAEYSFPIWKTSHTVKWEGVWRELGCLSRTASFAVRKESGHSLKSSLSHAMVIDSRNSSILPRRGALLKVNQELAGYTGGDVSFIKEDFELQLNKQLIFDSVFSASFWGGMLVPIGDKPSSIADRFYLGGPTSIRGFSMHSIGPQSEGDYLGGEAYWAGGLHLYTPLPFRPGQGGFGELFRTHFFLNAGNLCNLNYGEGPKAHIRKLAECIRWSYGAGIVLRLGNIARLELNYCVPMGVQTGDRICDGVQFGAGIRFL
Sequence of PSMB6 (human) (P28072 35-239 limits assumed): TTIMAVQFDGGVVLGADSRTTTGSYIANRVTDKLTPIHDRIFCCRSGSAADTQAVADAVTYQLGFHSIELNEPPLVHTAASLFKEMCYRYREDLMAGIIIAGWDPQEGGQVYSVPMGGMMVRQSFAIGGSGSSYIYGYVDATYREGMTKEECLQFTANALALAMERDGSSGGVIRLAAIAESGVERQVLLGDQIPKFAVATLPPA
Sequence of FBXO6 (human) (Q9NRD1 whole entry): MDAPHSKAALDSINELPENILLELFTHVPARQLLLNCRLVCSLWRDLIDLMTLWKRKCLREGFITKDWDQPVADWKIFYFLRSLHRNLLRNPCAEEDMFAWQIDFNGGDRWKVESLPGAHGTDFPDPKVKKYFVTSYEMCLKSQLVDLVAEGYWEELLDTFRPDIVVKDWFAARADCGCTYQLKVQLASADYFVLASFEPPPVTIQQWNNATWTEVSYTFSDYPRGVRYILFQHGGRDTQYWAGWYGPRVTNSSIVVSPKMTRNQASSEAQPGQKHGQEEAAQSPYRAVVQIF

As to “N-terminal FLAG tagged B3GNT2 (from UniProt Q9NY97 1-397) (enzyme)”, the co-IP mass spectrometry count in assay [1] came out at 6; in assay [2], 3; in assay [3], 11; in [4], 15; in assay [5] it was 4; in assay [6], 41. Besides, the co-IP mass spectrometry count in assay [7] turned out to be 3.
As for “IgG control (Millipore Sigma 12-371) (antibody)”, the co-IP mass spectrometry count in [8] turned out to be 0; in assay [9], 2; in [10], 0; in assay [11] it was 0; in assay [12] it was 0; in assay [13], 0. Moreover, the co-IP mass spectrometry count in assay [14], in assay [15], in assay [16], in assay [17], in [18] and in [19] was 0 each time. Moreover, the co-IP mass spectrometry count in assay [20], in assay [21], in [22], in [23], in [24] and in assay [25] was 0 throughout. Further, the co-IP mass spectrometry count in assay [26] is 0; in assay [27], 8.
